Reference: the supplement of paper PMC7877785
± gives the uncertainty stated by the source.

Test: self-splicing fitness, log relative to wild type (ln ratio); higher = more splicing; Tetrahymena group I intron in knt gene, E. coli kanamycin selection, DiMSum; sequences stand for … in CUCUCU…GGAGGGAAAAGUUAUCAGGCAUGCACCUGGUAGCUAGUCUUUAAACCAAUAGAUUGCAUCGGUUUAAAAGGCAAGACCGUCAAAUUGCGGGAAAGGGGUCAACAGCCGUUCAGUACCAAGUCUCAGGGGAAACUUUGAGAUGGCCUUGCAAAGGGUAUGGUAAUAAGCUGACGGACAUGGUCCUAACCACGCAGCCAAGUCCUAAGUCAACAGAUCUUCUGUUGAUAUGGAUGCAGUUCACAGACUAAAUGUCGGUCGGGGAAGAUGUAUUCUUCUCAUAAGAUAUAGUCGGACCUCUCCUUAAUGGGAGCUAGCGGAUGAAGUGAUGCAACACUGGAGCCGCUGGGAACUAAUUUGUAUGCGAAAGUAUAUUGAUUAGUUUUGGAGUACUCGUGGUCG
Outline: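 DiMSum derived fitness as the error-weighted combination of fold changes across replicates, kanamycin versus no kanamycin, normalised to wild type. E. coli BL21(DE3) held the library, which randomised all eight P1ex-region intron nucleotides within the knt kanamycin-resistance gene on pET-22b(+). Six replicate transformations grew overnight at 37°C or 30°C on LB agar with or without 25 μg/mL kanamycin, also containing 100 μg/mL carbenicillin, 50 μM IPTG and 0.2% rhamnose, and pooled colonies were amplicon-sequenced on an Illumina HiSeq 2500.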

| Sequence | self-splicing fitness (ln) (30 °C) | self-splicing fitness (ln) (37 °C) |
| --- | --- | --- |
| AGAAAGCAAUAUUACGUCAC | -3.52 ± 0.3 | -2.61 ± 0.38 |
| CUGUAGCAAUAUUACGUUUU | -4.23 ± 0.35 | -2.23 ± 0.19 |
| CCGGAGCAAUAUUACGGUAU | -4.05 ± 0.2 | -3.34 ± 0.22 |
| UAAUAGCAAUAUUACGGGAA | -2.04 ± 0.21 | -2.11 ± 0.26 |
| GCGUAGCAAUAUUACGGGUA | -1.56 ± 0.11 | -0.91 ± 0.098 |
| AUGUAGCAAUAUUACGGUUA | -0.747 ± 0.17 | -0.518 ± 0.14 |
| UUGCAGCAAUAUUACGGGUC | -2.73 ± 0.21 | -1.7 ± 0.22 |
| CGCGAGCAAUAUUACGUGCU | -2.71 ± 0.14 | -2 ± 0.22 |
| CCCAAGCAAUAUUACGCGGA | -1.6 ± 0.093 | -0.459 ± 0.097 |
| UACUAGCAAUAUUACGGCUU | -1.2 ± 0.096 | 0.146 ± 0.12 |
| ACGAAGCAAUAUUACGACCA | -0.752 ± 0.15 | -0.848 ± 0.13 |
| GCUGAGCAAUAUUACGGGAA | -4.56 ± 0.42 | -2.02 ± 0.21 |
| UCCGAGCAAUAUUACGCGAC | -2.63 ± 0.41 | -1.58 ± 0.4 |
| GAGGAGCAAUAUUACGCGGA | -3.27 ± 0.4 | -2.76 ± 0.41 |
| GCCAAGCAAUAUUACGUACG | -1.79 ± 0.078 | -1.56 ± 0.11 |
| CAGAAGCAAUAUUACGUGAU | -2.97 ± 0.14 | -1.26 ± 0.11 |
| GAUUAGCAAUAUUACGCACU | -0.846 ± 0.15 | 0.415 ± 0.18 |
| UGGAAGCAAUAUUACGAGAG | -3.79 ± 0.47 | -3.3 ± 0.33 |
| CCCAAGCAAUAUUACGUCAG | -4.12 ± 0.17 | -1.97 ± 0.13 |
| AGUUAGCAAUAUUACGGGAG | -4.34 ± 0.39 | -1.65 ± 0.22 |
| AUACAGCAAUAUUACGCAGA | -1.49 ± 0.13 | -1.51 ± 0.1 |
| AUUCAGCAAUAUUACGUCUA | -0.634 ± 0.11 | -0.557 ± 0.1 |
| CGUAAGCAAUAUUACGUGUA | -3.25 ± 0.22 | -0.592 ± 0.13 |
| AGCCAGCAAUAUUACGUGUU | -3.62 ± 0.11 | -1.56 ± 0.087 |

| Sequence | self-splicing fitness (ln) (30 °C) | self-splicing fitness (ln) (37 °C) |
| --- | --- | --- |
| UGCGAGCAAUAUUACGUACC | -2.77 ± 0.14 | -2.75 ± 0.25 |
| GGCGAGCAAUAUUACGAGGC | -3.5 ± 0.23 | -3.02 ± 0.27 |
| AUCCAGCAAUAUUACGUAAC | -1.82 ± 0.13 | -1.91 ± 0.22 |
| AUUCAGCAAUAUUACGUGCA | -0.628 ± 0.08 | -0.47 ± 0.083 |
| UACCAGCAAUAUUACGAUGC | -3.19 ± 0.16 | -3.07 ± 0.25 |
| GCAUAGCAAUAUUACGGCUC | 0.0416 ± 0.087 | -0.0445 ± 0.088 |
| UACCAGCAAUAUUACGAUCC | -1.4 ± 0.15 | -1.84 ± 0.26 |
| UGCUAGCAAUAUUACGAUCG | 0.18 ± 0.12 | 0.439 ± 0.23 |
| GAGCAGCAAUAUUACGGGAG | -3.68 ± 0.32 | -2.9 ± 0.35 |
| ACGGAGCAAUAUUACGAAUU | -3.52 ± 0.26 | -2.5 ± 0.27 |
| UCGCAGCAAUAUUACGUUAC | -3.36 ± 0.36 | -2.95 ± 0.25 |
| AGUAAGCAAUAUUACGGACC | -0.0938 ± 0.13 | 0.0977 ± 0.16 |
| UUUGAGCAAUAUUACGACUC | -2.58 ± 0.44 | -2.37 ± 0.41 |
| AACGAGCAAUAUUACGACUC | -1.14 ± 0.064 | -0.414 ± 0.081 |
| UUCUAGCAAUAUUACGGCCA | -2.24 ± 0.4 | -1.84 ± 0.42 |
| UCGCAGCAAUAUUACGGGGU | -3.73 ± 0.17 | -2.72 ± 0.18 |
| UAUGAGCAAUAUUACGCGGU | -3.41 ± 0.21 | -2.68 ± 0.3 |
| UUUCAGCAAUAUUACGGCGG | -1.72 ± 0.15 | -0.833 ± 0.18 |
| UCAUAGCAAUAUUACGUACG | -1.57 ± 0.12 | -0.499 ± 0.13 |
| CCCGAGCAAUAUUACGUCGU | -2.45 ± 0.12 | -3.06 ± 0.24 |
| UAACAGCAAUAUUACGCACU | -1.26 ± 0.06 | 0.231 ± 0.087 |
| AAAAAGCAAUAUUACGGUCA | -0.0389 ± 0.065 | 0.206 ± 0.082 |
| GCCUAGCAAUAUUACGUGCG | -1.6 ± 0.075 | -0.358 ± 0.078 |
| UUCUAGCAAUAUUACGAAUA | -2.64 ± 0.3 | -0.478 ± 0.17 |

| Sequence | self-splicing fitness (ln) (30 °C) | self-splicing fitness (ln) (37 °C) |
| --- | --- | --- |
| GAAAAGCAAUAUUACGCUAG | -1.8 ± 0.076 | -1.57 ± 0.099 |
| CCGUAGCAAUAUUACGUAGU | -3.13 ± 0.19 | -3.05 ± 0.33 |
| UGAGAGCAAUAUUACGUCGU | -2.38 ± 0.2 | -2.64 ± 0.36 |
| UCGUAGCAAUAUUACGGUUU | -3.44 ± 0.14 | -1.37 ± 0.11 |
| AACUAGCAAUAUUACGGCCA | -0.0639 ± 0.1 | -0.69 ± 0.1 |
| GUCGAGCAAUAUUACGUAUC | -0.209 ± 0.13 | -1.42 ± 0.15 |
| UCAAAGCAAUAUUACGGCUG | -0.827 ± 0.056 | 0.231 ± 0.078 |
| UUGGAGCAAUAUUACGGAGA | -2.59 ± 0.37 | -1.08 ± 0.23 |
| AACAAGCAAUAUUACGUACU | -0.11 ± 0.05 | 0.496 ± 0.071 |
| AGGUAGCAAUAUUACGGCCA | 0.159 ± 0.018 | 0.165 ± 0.037 |
| AAAGAGCAAUAUUACGGGGU | -2.63 ± 0.21 | -2.18 ± 0.24 |
| AACGAGCAAUAUUACGCCGC | -2.6 ± 0.24 | -3.58 ± 0.39 |
| ACGUAGCAAUAUUACGCUGU | -2.65 ± 0.17 | -2.34 ± 0.21 |
| CUUGAGCAAUAUUACGCGAU | – | 1.12 ± 0.27 |
| UGCCAGCAAUAUUACGCGCU | -1.3 ± 0.12 | -0.531 ± 0.17 |
| CGAUAGCAAUAUUACGUCCC | -1.28 ± 0.23 | -0.717 ± 0.28 |
| UCCUAGCAAUAUUACGCAAU | -2.64 ± 0.21 | -2.05 ± 0.25 |
| UCUUAGCAAUAUUACGCGCU | -3.3 ± 0.47 | -3.27 ± 0.39 |
| UCAGAGCAAUAUUACGGCGC | -1.6 ± 0.2 | -2.6 ± 0.45 |
| GUUCAGCAAUAUUACGGUUG | -1.9 ± 0.089 | -0.591 ± 0.1 |
| GCUCAGCAAUAUUACGUUCU | -0.649 ± 0.074 | -0.195 ± 0.09 |
| AGGUAGCAAUAUUACGCCUC | -3.88 ± 0.05 | -3.34 ± 0.068 |
| GUGGAGCAAUAUUACGGUUG | -3.04 ± 0.15 | – |
| ACCGAGCAAUAUUACGUGUC | -3.24 ± 0.2 | -3.04 ± 0.27 |

| Sequence | self-splicing fitness (ln) (30 °C) | self-splicing fitness (ln) (37 °C) |
| --- | --- | --- |
| CGUAAGCAAUAUUACGACAG | -0.247 ± 0.11 | -0.867 ± 0.14 |
| GCGCAGCAAUAUUACGAGCU | -3.19 ± 0.28 | -1.74 ± 0.16 |
| AGGCAGCAAUAUUACGAGUC | -2.29 ± 0.14 | -2.34 ± 0.2 |
| UAGAAGCAAUAUUACGAAAG | -1.97 ± 0.21 | -1.26 ± 0.18 |
| UAGUAGCAAUAUUACGGGAG | -3.69 ± 0.4 | -2.3 ± 0.45 |
| UAGGAGCAAUAUUACGUAGC | -3.98 ± 0.24 | -2.74 ± 0.21 |
| UACCAGCAAUAUUACGAAGA | -1.63 ± 0.097 | -0.519 ± 0.11 |
| CUGGAGCAAUAUUACGAGGG | -2.67 ± 0.24 | -2.08 ± 0.34 |
| GUCCAGCAAUAUUACGGUUG | -1 ± 0.067 | -0.214 ± 0.091 |
| UGAAAGCAAUAUUACGCCCG | -0.527 ± 0.15 | -0.0303 ± 0.21 |
| UCAGAGCAAUAUUACGACAU | -4.002 ± 0.035 | -2.6 ± 0.045 |
| CUCAAGCAAUAUUACGGCUU | -3.53 ± 0.18 | -2.65 ± 0.21 |
| GAUGAGCAAUAUUACGUAAC | -1.63 ± 0.12 | -1.9 ± 0.3 |
| GGAGAGCAAUAUUACGUUCA | -1.39 ± 0.17 | -0.277 ± 0.21 |
| GAAAAGCAAUAUUACGUGCU | -1.8 ± 0.098 | -0.978 ± 0.1 |
| UGCUAGCAAUAUUACGAGAU | -3.93 ± 0.31 | -2.41 ± 0.3 |
| GGGCAGCAAUAUUACGAGUU | -2.81 ± 0.2 | -1.27 ± 0.22 |
| ACCUAGCAAUAUUACGUCAC | -4.1 ± 0.18 | -1.83 ± 0.2 |
| AGGUAGCAAUAUUACGCGAG | -1.32 ± 0.014 | -0.6 ± 0.032 |
| GUUCAGCAAUAUUACGCCUU | -0.418 ± 0.083 | 0.046 ± 0.082 |
| CUGGAGCAAUAUUACGGUGU | -4.16 ± 0.36 | -2.02 ± 0.2 |
| AAAAAGCAAUAUUACGAACC | -1.53 ± 0.12 | -0.312 ± 0.18 |
| GCGGAGCAAUAUUACGUAAG | -3.35 ± 0.33 | -0.951 ± 0.19 |
